Earlier results on 1 substance are cited in publication PMC4681696.

In the series the target is p75NTR (Homo sapiens) (UniProt P08138).
Sequence of UniProt P08138 (P08138 29-250): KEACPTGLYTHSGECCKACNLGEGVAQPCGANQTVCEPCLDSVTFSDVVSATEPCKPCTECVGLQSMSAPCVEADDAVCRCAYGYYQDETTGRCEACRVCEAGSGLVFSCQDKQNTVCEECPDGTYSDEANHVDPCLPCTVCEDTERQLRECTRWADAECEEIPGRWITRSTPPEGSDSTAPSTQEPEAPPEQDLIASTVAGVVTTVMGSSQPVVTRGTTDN

Usually Kd stands for the concentration at which binding is half-saturated. On to NGF (from UniProt P01138), for which the equilibrium dissociation constant (Kd) is 7 nM.
